Laboratory results reported in the nanobody polyreactivity screen of Harvey et al. (2022).

Test: yeast display, Sf9 membrane polyspecificity reagent, FACS + sequencing; frameworks hold sequencing errors
Summary of the method: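 After 36–48 hours of galactose induction, yeast (Saccharomyces cerevisiae BJ5465) displaying a synthetic nanobody library were stained at 4 °C for 1 hour with 10% biotinylated, detergent-solubilized Sf9 membrane reagent. Streptavidin microbeads enriched the stained cells before FACS sorting into low and high (top ~1%) gates on anti-HA and streptavidin fluorescence. Each clone's polyreactivity label reflects its gate of origin.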

For “QVQLVESGGGLVQAGGSLRLSCAASGSIFHVNAMGWYRQAPGKERELVAGISDGGSTYYADSVKGRFTISRDNAKNTVYLQMNSLKPEDTAVSYCAAESEQWYSYVLSYVWEYDYWGQGTHVTVSS”, the “polyreactivity (PSR sort gate)” value was “low polyreactivity”.
In the case of “QLQLVESGGGLVQAGGSLRLSCAASGITFYGYAMGWYRQAPGKERELVAAISSRGGSTYYADSVKGRFTISRDNAKNTVYLQMNRLKPEDTAVYYCAAVYYTGEYYYWGQGTQVTVSS”, the “polyreactivity (PSR sort gate)” value is reported as “high polyreactivity”.
In the case of “QLQLVESGGGLVQAGGSLRLSCAASGFTFYLYVLGWYRQAPGKEREFVAAITGSGTSTYYADSVKGRFTISRDNAKNTVYLQMNSLKPEDTAVYYCNAKRDRYFYTVKYDYWGQGTQVTVSS”, the “polyreactivity (PSR sort gate)” value is reported as “low polyreactivity”.
In the case of “QVQLVESGGGLVQAGGSLRLSCAASGSILASYAMGWYRQAPGKERELVAAINRGGRTKYADSVKGRFTISRDNAKNTVYLQMNSLKPEDTAVYYCAKSDSQYEGDGYWGQGTQVTVSS”, the “polyreactivity (PSR sort gate)” value is reported as “high polyreactivity”.
With “QVQLVESGGGLVQAGGSLRLSCAASGRIFRYKAMGWYRQAPGKERELVAAISGSGGSTYYADSVKGRFTISRDNAKNTVYLQMNSLKPEDTAVYYCNALYWIFNHGGYDYWGQGTQVTVSS” the “polyreactivity (PSR sort gate)” value was “low polyreactivity”.
For “QVHLVESGGGLVQAGGSHSLSCAASGITFPLYVMGSYRQAPGKERELVAAISASGGSTYADSVKGRFTISRDNAKNTVYLQMNSLKPEDTAVYYCNAAVYVGYEYDYWGLGTQVTVSS”, the “polyreactivity (PSR sort gate)” value was “low polyreactivity”.
In the case of “QVQLVESGGGLVQAGRSLRLSCAASGSIFGWNAMGWYRQAPGKERELVAAINGGDRTNYADSVKGRFTISRDNAKNTVYLQMNSLNTEDTAVYYCGKDFYPTRPGWGGGEYNYWGQGTQVTVSS”, the “polyreactivity (PSR sort gate)” value is reported as “low polyreactivity”.
For “QVQLVESGGGLVQAGGSLRLSCAASGSIFPKYAMGWYRQAPGKERELVAAITSSGGRTYYADSVKGRFTISRDNAKNTVYLQMNSLKPEDTAVYYCAARSPRASGNSDYWGQGTQVTVSS”, the “polyreactivity (PSR sort gate)” value was “high polyreactivity”.
In the case of “QVQLVESGGGLVQAGGSLRLSCVASGRIFSVYAMGWYRQAPAKERELVAGITSSGGSTYYADSVKGRFTISRDNAKNTVYLQMNSLKPEDTAVYYCAAVSEYYKGYDYWGQGTQVTVSS”, the “polyreactivity (PSR sort gate)” value is reported as “high polyreactivity”.
In the case of “QVQLVESGGGLVQAGGSLRLSCAASGIYINAMGWYRQAPGKERELVAAISRGGSTYYADSVKGRFTISRDNAKNTVYLKMNSLKPEDTAVYYCAKLIGRWRLYHTFVKGDYWGQGTQVTVSS”, the “polyreactivity (PSR sort gate)” value is reported as “high polyreactivity”.
In the case of “QVQHVESGGGLVQAGGSLRLSCAASGLIYAYYAMGWYRHAPGKERELVAAISRSGVSTYYADSVKGRFTISRDNAKNTVYLQMNSVKPEDTAVYYCAARWRSGFTSGDYWGQGTQVTVSS”, the “polyreactivity (PSR sort gate)” value is reported as “low polyreactivity”.
For “QVQLVESGGGLDQAGGSLRLTCAASGIIFFEYAMGWYRQAPGKERELVAAISWRGGRTYYADSVKGRFTISRDNAKNSVYLQMNSLKPEDTAVYYCAADFRSWPYYPWSKYDYWGQGTQVTVSS”, the “polyreactivity (PSR sort gate)” value was “high polyreactivity”.
In the case of “QVQLQESGGGLVQARGSLRLSCAASGSISRYYDMGWYRQAPCKESEFVAGISGGAITYYADSVKGRFTISRDNAKNTVYLQMNSLKPEDTAVYYCAADTGVYKYHSYWGQVTQVTVSS”, the “polyreactivity (PSR sort gate)” value is reported as “low polyreactivity”.
In the case of “QVQLQESGGGLVQAGGSLRMSCSASGNIFDADIMGWYRQAPGKERELVASITDGRRTNYADSVKGRYTISRDSEKNTVYLQMNSLKPEDTAVYYCAAIAYPVVPTYFDYDSDYFHWGQGTQVTVSS”, the “polyreactivity (PSR sort gate)” value is reported as “high polyreactivity”.
For “QVQLVESGGGLVQAGGSLRLSSAASGFTFPWYAMGWYSQAPGKEREVVAVISSSGGSTYYADSVKGRFTISRDNAKNTVYLQMNSLKPEDTAVYYCARAYGGRGYDIRYDYWGKGTQVTVSS”, the “polyreactivity (PSR sort gate)” value was “high polyreactivity”.
For “QVQLVESGGGLVQAGGSLRLSCAASGFTFVAYAMGWYRQAPGKERELVAALRRTGGSSSYADSVKGRFTISRDIAKNTVYLQMNRLKPEDTSVYYCNKVRLISGVYWSYQAFGYWGQGTQVTVSS”, the “polyreactivity (PSR sort gate)” value was “high polyreactivity”.
In the case of “QVQLVESGGGLVQAGGSLRLSCAASGRIFPWNAMGWYRQAPGKDRELVAAISFSAGRTYYADSVKGRFTISRDNAKNTVYLQMNSLKPEDTAVYYCNARIGSPWVWTGIIGYEYWGQGTQVTVSS”, the “polyreactivity (PSR sort gate)” value is reported as “low polyreactivity”.
With “QVQLVESGGGLVQAGGSLRLSCAASGSIFWYNTMGWYRQAPGKERELVASISWDGGTYYADSVKGRFTISRDNAKNTVYLQMNSLKPEVTAVYYCNVAWYWGYDYWGQGTQVTVSS” the “polyreactivity (PSR sort gate)” value was “low polyreactivity”.
For “QVQLVESGGGLDHAGGRLRLSCAASGSIFYENVMGWYRQAPGKERELVAGISRSGGRTYYADSVKGSFTISRDYAKNTVYLQMNSLQPVDTAVYYCAALTPRNRYRKFDYWGQGTQVTVSS”, the “polyreactivity (PSR sort gate)” value was “high polyreactivity”.
For “QVQLVESGGGIVQEGRSLSISCAASGSTFYTYAMGWYRPAPGKERELVAAITQSGGRTYYADSVKGRFTISRDNANNTVYLEMNSLKPEDTAVDYCNAPPYTGYDWGQGTQVSVSS”, the “polyreactivity (PSR sort gate)” value was “high polyreactivity”.
In the case of “QVQLVESGGGLVQAGGSLRLSCAASGSIIWRNTMGWYRQAPGKESELVARITGRGGRTNYADSVKGRFTISRDNAKNTVYLQMNSLKPEDTAVYYCAAAYPSVAYSYRYDYWGQGTQVTVSS”, the “polyreactivity (PSR sort gate)” value is reported as “high polyreactivity”.
In the case of “QVQLVESGGGLVQAGGSLRLSCAASGSTFGIYAMRWYRQAPGKERELVAAISSRGSTYYADSVKGRFTISRDNAKNTVYLQMNSLKPEDTAVYYCAAKVWARVDGRQFRMVYWGQGTQVTVSS”, the “polyreactivity (PSR sort gate)” value is reported as “high polyreactivity”.
With “QVQLVESGGGLVQTGGTLRLSCAASGRSFNRNARAWYRLAPGKERELVAAISSRVGRTYYADSVKGRFTISRDNAKNSVYLKMNSLKQEETAVYYCNAVYSQSCYFYRFDYWGQGTQVNVSS” the “polyreactivity (PSR sort gate)” value was “high polyreactivity”.
For “QVQLVESGGGLVQAGGSLRLSCAASGRIFAAYAMGWYRQAPGKERELVAGISRGGRTYYADSVKGRFTISRDNAKNTVYLQMNSLKPEDTAVYYCAKRATGQYSITAYGYDYWGQGTQVTVSS”, the “polyreactivity (PSR sort gate)” value was “low polyreactivity”.
With “QVQLVESGGGLVQAGGSLRLSCAASGRTFDAYAMGWYRQAPGKERELVAAISSGGSTNYADSVKGRFTISRDHAKNTVYLQKNSLKPEDTAVYYCAAEYIQYLFYSVRVAYDYWGQGTQVTVSS” the “polyreactivity (PSR sort gate)” value was “low polyreactivity”.
For “QVQLVESGGGLVQAGGSLRLSCAPSGSIFGINARAWYRQAPGKERELVAAISSGGSTNNADSVKGRFTISRDNAKNTVYFQMNSLKPEDTAVYYCAARLYYVRYNYWGQGTQGTVSS”, the “polyreactivity (PSR sort gate)” value was “high polyreactivity”.
In the case of “QVQLVESGGGLVQAGGSLRLSCAASGSTFGLNPMGWYRQAPGKERELVAAISTSGGSTYYADSVKGRFTISRDNAKNTVYLQMNSLKPEDTAVYYCAAEVVAGYDYSQYYYWGQGTQVTVSS”, the “polyreactivity (PSR sort gate)” value is reported as “low polyreactivity”.
In the case of “QVQLVESGGGLVQAGGSLRLSCAASGFTFPVYAMGWYRQAPGKEREFVAAITKSGGGTYYADSVKGRFTISRDNAKNTVYLQMNSLKPVDTAVYYCAKASRRFLTLGYDYWGQGTQVTVSS”, the “polyreactivity (PSR sort gate)” value is reported as “high polyreactivity”.
In the case of “QVKLVESGGGLVQAGGSLRLSCAASGFIFKANAMGWYRQAPGKETELVAAITWRDGNTNYADSVKGRFTISRDNAKNTVYLQMNSLKPEDTAGYYCAVRLLADDGYPAVVGDDYWGQGTQVTVSS”, the “polyreactivity (PSR sort gate)” value is reported as “low polyreactivity”.
With “QVQLVESGGGLVQAGGSLRLSCAASGSTFAWYDMGWYRQAPGKEREFVAAIDYGGGSTYADSVKGRFTISRDNAKNTVYLQMNSLKPEDTAVYYCNADNWVYLYDYWGQGTQVTVSS” the “polyreactivity (PSR sort gate)” value was “low polyreactivity”.
With “QVQLVESGGGLVQAGGSLRLSCAASGIIFYVNAMGWYRQAPGKERELVAAITFGGDSTYYADSVKGRFTISRDNAKNTVYLQMNSLKPEDTAVYYCAADYVALYYWYDYWGQGTQVTVSS” the “polyreactivity (PSR sort gate)” value was “low polyreactivity”.
In the case of “QLQLVESGGGLVQAGGSLRLSCAASGSILGSYAMGWYRQAPGKERELVAAITRRGSSTYYADSVKGRFTISRDNAKNTVYLQMNSLKPEDTAVYYCAVYRRWYSGLYDYWGQGTQVTVSS”, the “polyreactivity (PSR sort gate)” value is reported as “high polyreactivity”.
In the case of “QVQLVESGGGLVQAGGSLRLSCAASGSISVSYMGWYRQAPGKERELVAAINWRGGSTYYADSVKGRFTISRDNAKNTVYLQMNSLKPEDTAVYYCAADYTVSYPYYEYYYWGQGTQVNVSS”, the “polyreactivity (PSR sort gate)” value is reported as “high polyreactivity”.
In the case of “QVQLVESGGGLVQAGGSLRLSCAASGRIFRYYAMGWYRQAPGKERELVATISSSGGSTYYADSVKGRFTISRDNAKNTVYLQMKSLKPEDTAVYYCAADWYGYRQFHGYYWGQGTQVTVSS”, the “polyreactivity (PSR sort gate)” value is reported as “high polyreactivity”.
With “QVQLVESGGGLVQAGGSLRLSCAASVFTFSPNAMGWYRQAPGKERELVAAISKRGASTYYADSVKGRFTISRDNAKNTVYLQMNSLKPEDTAVYYCNVGASARKPYDYWGQGTQVTVSS” the “polyreactivity (PSR sort gate)” value was “high polyreactivity”.
For “QVQLVESGGGLVQAGGSLRLSCAASGRTFWYNTMGWYRQAPGKERELVAAISTGGSTNYADSVKGRFTISRDNAKNTVYLQMNSLIPEDTAVYYCAALIYYWSGRPRFDQARDYDYWGQGTQVTVSS”, the “polyreactivity (PSR sort gate)” value was “low polyreactivity”.
In the case of “QVQLVESGGGLVQAGGSLRLSCAASGRIFYSYAMAWYRQAPGKERELVAAISSRTGSTYYADSVKGRFTISRDNAKITVYLQMNSLIPEDTAVYYCAARKKYRFDYWGQGTQVTVSS”, the “polyreactivity (PSR sort gate)” value is reported as “high polyreactivity”.
In the case of “QVQLVESGGGLVQAGGSLRLSCAASGNIFTSYAMGWYRQAPGKERELVAAISSGGRTSYADSVKGRFTISRDNAKNTVYLEMNSLKPEDNAVYYCAAYYRRWQREYYYWGQGTKVTVSS”, the “polyreactivity (PSR sort gate)” value is reported as “high polyreactivity”.
With “QVQLVESGGGLVQAGGSLRLSCAASGRIFWPYAMGWYRPAPGKERELVAAITSGGSTYYADSVKGRFTISRDNAKNTVYLQMNSLKPEVTAVYYCAKRSSGVSVPVAYGGIKRYNSWGQGTQVTVSS” the “polyreactivity (PSR sort gate)” value was “low polyreactivity”.
With “QFQLVESGGGLDQAGGSLRLSCAASGSIFWYYAMGWYRQAPGKERELVAAISISGSTYYADSVKGRFTISRDNAKNTVYLQMNSLKPEDTAVYYCAARKFFWRSNYDYWGQGTQVTVSS” the “polyreactivity (PSR sort gate)” value was “low polyreactivity”.
In the case of “QVQLVESGGGLVQAGGSLRLSCAASGSTFRGYAMGWYRQAPGKEREFVAAISRRGGTTYYADSVKGRFTISRDNAKNTVDLQMNSRNPEDTAVYYCNAVLYARQRDRWARYDYWGQGTQVTVSS”, the “polyreactivity (PSR sort gate)” value is reported as “high polyreactivity”.
For “QVQLVESGGGLVQAGGSLRLSCAASGRTFRGNVMGWYRQAPGKEREFVAAITKSDGSTYYADSVKGRFTISRDNAKNTVYLQMNSLKPEDTAVYYCAARTARTGWPWFRYDYWGQGTQVTVSS”, the “polyreactivity (PSR sort gate)” value was “low polyreactivity”.
With “QVQLQESGGGLLLAGGSLRLSCSASGNISVYGSMGWYRQAPGKEREFVATIDPGTNTNYADSVKDRFTISRDNAKNTVYLQMNSLKPEDTAVYYCAVEAGSDWPYRYWGQGTQVTVSS” the “polyreactivity (PSR sort gate)” value was “low polyreactivity”.
